Experimental data as given in article PMC4860158 (Journal of neurochemistry, 2016).

Target: the molecule itself
Test: SEC

B1: Gloeobacter violaceus ligand-gated ion channel (GLIC), wild type, pentameric assembly (natural protein, UniProt Q7NDN8 44-359, looked up)
chain: QDMVSPPPPIADEPLTVNTGIYLIECYSLDDKAETFKVNAFLSLSWKDRRLAFDPVRSGVRVKTYEPEAIWIPEIRFVNVENARDADVVDISVSPDGTVQYLERFSARVLSPLDFRRYPFDSQTLHIYLIVRSVDTRNIVLAVDLEKVGKNDDVFLTGWDIESFTAVVKPANFALEDRLESKLDYQLRISRQYFSYIPNIILPMLFILFISWTAFWSTSYEANVTLVVSTLIAHIAFNILVETNLPKTPYMTYTGAIIFMIYLFYFVAVIEVTVQHYLKVESQPARAASITRASRIAFPVVFLLANIILAFLFFGF
In the case of B1, the “stoichiometry N” value is reported as 5.
